Measurements: doi:10.1101/2024.11.08.622755

How the values were obtained:
[1] = target: Nonlabens marinus rhodopsin 3 (NM-R3), chloride ion-pumping rhodopsin clade (Nonlabens marinus S1-08T); assay: cryo-EM structure
[2] = target: Nonlabens marinus rhodopsin 1 (NM-R1), proteorhodopsin clade (Nonlabens marinus S1-08T); assay: cryo-EM structure

A stoichiometry N [1] of 5 was found for “Nonlabens marinus rhodopsin 3 (NM-R3), chloride ion-pumping rhodopsin clade (natural protein)” in this work.
A stoichiometry N [2] of 5 was found for “Nonlabens marinus rhodopsin 1 (NM-R1), proteorhodopsin clade (natural protein)” in this work.
